# Test results taken from the MegaScale stability set (Tsuboyama et al. 2023).
# B1: HEEH_KT_rd6_3632 (parent)
# chain: DAEELIELVERALKEGREIILLGVRITSEEAGKWFIEWIRRFL
# Variants of: B1
# Assay: folding stability dG (cDNA display proteolysis); higher = more stable
# Conditions: PBS, room temperature
row,Variant,folding stability dG [kcal/mol]
1,K33P,3.2
2,I36T,3.09
3,L8I,3.61
4,L13K,3.07
5,E18D,3.44
6,W34R,3.98
7,R25E,3.28
8,E30W,4.01
9,G32K,3.68
10,I19L,3.56
11,A2R,3.54
12,R25K,3.57
13,K33V,3.55
14,L22K,3.05
15,E30Q,3.77
16,L21S,3.12
17,R40I,3.77
18,I19E,2.63
19,L13H,2.99
20,A2K,3.5
21,I39K,2.56
22,G16A,3.84
23,E37P,2.92
24,R40C,4.03

row,Variant,folding stability dG [kcal/mol]
1,F42Y,3.72
2,W38F,3.65
3,I6V,3.48
4,K14F,3.39
5,E7F,3.74
6,R17E,3.23
7,R17P,3.36
8,E18Q,3.74
9,L22I,3.56
10,E37H,3.46
11,L22E,2.7
12,E30G,3.64
13,E15A,3.7
14,L5H,2.83
15,L22R,3.31
16,E15Y,3.67
17,G32Y,3.85
18,I26Q,3.21
19,L21I,3.83
20,E29V,3.79
21,R40F,3.87
22,D1G,3.9
23,I19Y,3.23
24,F35W,3.44

row,Variant,folding stability dG [kcal/mol]
1,I20Q,3.12
2,I39S,2.66
3,E37I,3.87
4,L43W,3.89
5,L21D,2.71
6,L22W,4.08
7,E4Q,3.95
8,S28L,3.73
9,L43N,2.97
10,E37A,3.81
11,E4P,3.64
12,E30D,3.63
13,K33I,3.56
14,E7G,3.89
15,E29L,3.93
16,E7T,3.82
17,L22C,4.73
18,I6Q,3.16
19,A2Y,4.2
20,G23E,3.41
21,R41G,3.45
22,E7K,4.05
23,E30V,3.94
24,W38P,2.26

row,Variant,folding stability dG [kcal/mol]
1,R25D,3.21
2,G32R,3.72
3,E29T,3.83
4,L8F,3.77
5,F35H,2.85
6,R40W,3.85
7,G16W,4
8,L5R,2.79
9,L5M,3.56
10,L43Q,3.22
11,A2E,3.44
12,V24K,3.05
13,F35D,2.6
14,F35S,2.86
15,L22A,3.2
16,K33L,3.63
17,R41K,3.76
18,E10R,4.03
19,A2L,4.31
20,R17W,3.75
21,E10A,3.63
22,I39E,2.69
23,S28R,3.43
24,E7L,3.91

row,Variant,folding stability dG [kcal/mol]
1,E4T,4.03
2,L8T,3.28
3,I20T,3.73
4,A12S,3.31
5,E10V,3.99
6,K33A,3.77
7,E29G,3.63
8,L43E,2.91
9,E4I,4.06
10,R25M,3.66
11,I20V,3.66
12,W34D,3.39
13,G23M,3.91
14,G23S,3.56
15,I20K,3.01
16,V9D,2.93
17,E3F,4.06
18,F35G,2.63
19,V24Q,3.13
20,I19A,3.18
21,L5G,2.88
22,R11V,3.37
23,W34F,3.42
24,E3R,4.16

row,Variant,folding stability dG [kcal/mol]
1,I20M,3.26
2,I39C,3.49
3,A31S,3.65
4,F42T,3.35
5,E15Q,3.46
6,G32S,3.39
7,E30K,3.65
8,G16I,4.25
9,L43Y,3.81
10,G16R,3.44
11,G32F,4.17
12,L13I,3.87
13,F42R,3.29
14,K33F,3.48
15,W34S,3.43
16,F42I,3.67
17,E15S,3.73
18,E15H,3.54
19,E29R,3.71
20,L21N,3.01
21,E4S,3.89
22,I20L,3.35
23,L43S,3.17
24,W38K,2.86

row,Variant,folding stability dG [kcal/mol]
1,G32D,3.14
2,D1N,3.96
3,L21E,3.06
4,K14A,3.73
5,L22D,2.66
6,I6A,3.38
7,T27Y,3.74
8,I26R,3.38
9,R11E,3.38
10,T27N,3.99
11,I19H,2.98
12,L43A,3.35
13,F42H,3.45
14,K14M,3.48
15,L13F,3.42
16,E7S,3.88
17,R11Y,3.15
18,L22Q,3.13
19,T27Q,3.44
20,I36D,3.04
21,E18L,3.83
22,I36E,2.97
23,F42A,3.21
